The numbers were not newly measured in article PMC11939847, which cites them from elsewhere.

This data set addresses BRD4 ET (Homo sapiens) (UniProt O60885). Description: SPR. (In general: In SPR one partner is held on a chip, and binding of the other changes the refractive index at the surface.)

Broadly, the Kd is the concentration at which binding is half-saturated. LKIRL peptide: the Kd was 145 nM.
